This is an account of results in US20140154243A1 (Amgen, published 2014).

Numbering of substitutions follows the chain as printed. Some results are limits rather than exact numbers.

B1: antibody 3.10.1 (antibody, human IgG1, kappa, V domains shown)
VH: QVQLQQWGAGLLKPSETLSLTCAVYGGSFSTYYWSWIRQPPGKGLEWIGEINHSGSTNYNPSLKSRVTISVDTSKNQFSLKLSSVTAADTAVYYCARGGYDFWSGYYDYWGQGTLVTVSS
VL: not shown
notes: also called antibody to HGF ultimately derived from hybridoma 3.10.1
B2: antibody 1.61.3 (antibody, human IgG2, kappa, V domains shown)
VH: QVQLQESGPGLVKPSQTLSLTCTVSGGSISSDGYYWSWIRQHPGKGLEWIGYIYYSGSTYYNPSLKSRVTISVDTSKNQFSLKLSSVTAADTAVYYCARSHLHYYDSSGYYYGGAFDIWGQGTMVTVSS
VL: DIQMTQSPSSLSASVGDRVTITCQASQDISNYLNWYQQKPGTAPKLLIYGASDLETGVPSRFSGSGSGTDFTFAISSLQPEDIATYYCQQYDNLPYNFGQGTKLEIKR
notes: also called antibody to HGF ultimately derived from hybridoma 1.61.3
B3: antibody 1.60.1 (antibody, human IgG2, kappa, V domains shown)
VH: QVQLVQSGAEVKKPGASVKVSCKASGYTFTGYYINWVRQAPGQGLEWMGWINPNSGGTNYAQKFQGRVTMTRDTSITTAYMELSRLRADDTAVYYCARELELRYYGMDVWGQGTTVTVSS
VL: DIQMTQSPSSLSVSVGDRVTITCRASQGISSYLAWYQQKPGKVPKLLIYVASTLQSGVPSRFSGSGSGTDFTLTISSLQPEDVATYYCQNYNSDPLTFGGGTKVEIKR
notes: also called antibody to HGF ultimately derived from hybridoma 1.60.1
B4: antibody 1.29.1 (antibody, human IgG2, kappa, V domains shown)
VH: QVQLVESGGGVVQPGRSLRLSCAASGFTFSSYGMHWVRQAPGKGLEWVAVIWYDGSDKYYADSVKGRFTISRDNSKNTLYLQMNSLRAEDTAVYYCAREDYGEGFDYWGQGTLVTVSS
VL: not shown
notes: also called antibody to HGF ultimately derived from hybridoma 1.29.1
B5: antibody 1.24.1 (antibody, human IgG2, kappa, V domains shown)
VH: QVQLVESGGGLVKPGGSLRLSCAASGFTFSDYYMSWIRQAPGKGLEWVSYISSSGSTIYYADSVKGRFTISRDNAKNSLYLQMNSLRAEDTAVYYCARDEYNSGWYVLFDYWGQGTLVTVSS
VL: DIQMTQSPSSVSASVGDRVTITCRASQGISSWLAWYQQKPGKAPNLLIYEASSLQSGVPSRFGGSGSGTDFTLTISSLQPEDFATYYCQQANGFPWTFGQGTKVEIKR
notes: also called antibody to HGF ultimately derived from hybridoma 1.24.1
B6: antibody 1.75.1 (antibody, human IgG2, kappa, V domains shown)
VH: QVQLQESGPGLVKPSQTLSLTCTVSGGSISSGGYYWSWIRQHPGKGLEWIGYIYYSGSTYYNPSLKSRVTISVDTSKNQFSLKVSSVTAADTAVYYCARDPLWFGEFDYYGMDVWGQGTTVTVSS
VL: DIQMTQSPSSLSASVGDRVTITCRASQGIRNDLGWFQQKPGKAPKRLIYAASSLQSGVPSRFSGSGSGTEFTLTISSLQPEDFATYYCLQHDSYPLTFGGGTKVEIKR
notes: also called antibody to HGF ultimately derived from hybridoma 1.75.1
B7: antibody 2.40.1 (antibody, human IgG2, kappa, V domains shown)
VH: QVQLQESGPGLVKPSQTLSLTCTVSGGSISSGGYYWSWIRQHPGKGLEWIGNIYYSGITYYNPSLKSRVTMSVDTSKNQFSLKLSSVTAADTAVYYCARDPLYGDYGFDPWGQGTLVTVSS
VL: B6 VL with F36Y, A50V, D92N
notes: also called antibody to HGF ultimately derived from hybridoma 2.40.1

The target in one experiment is T1, human hepatocyte growth factor (HGF) (human, UniProt P14210 32-728). Nature of the experiment: cell-based or functional assay.
T1 sequence (P14210 32-728 limits assumed): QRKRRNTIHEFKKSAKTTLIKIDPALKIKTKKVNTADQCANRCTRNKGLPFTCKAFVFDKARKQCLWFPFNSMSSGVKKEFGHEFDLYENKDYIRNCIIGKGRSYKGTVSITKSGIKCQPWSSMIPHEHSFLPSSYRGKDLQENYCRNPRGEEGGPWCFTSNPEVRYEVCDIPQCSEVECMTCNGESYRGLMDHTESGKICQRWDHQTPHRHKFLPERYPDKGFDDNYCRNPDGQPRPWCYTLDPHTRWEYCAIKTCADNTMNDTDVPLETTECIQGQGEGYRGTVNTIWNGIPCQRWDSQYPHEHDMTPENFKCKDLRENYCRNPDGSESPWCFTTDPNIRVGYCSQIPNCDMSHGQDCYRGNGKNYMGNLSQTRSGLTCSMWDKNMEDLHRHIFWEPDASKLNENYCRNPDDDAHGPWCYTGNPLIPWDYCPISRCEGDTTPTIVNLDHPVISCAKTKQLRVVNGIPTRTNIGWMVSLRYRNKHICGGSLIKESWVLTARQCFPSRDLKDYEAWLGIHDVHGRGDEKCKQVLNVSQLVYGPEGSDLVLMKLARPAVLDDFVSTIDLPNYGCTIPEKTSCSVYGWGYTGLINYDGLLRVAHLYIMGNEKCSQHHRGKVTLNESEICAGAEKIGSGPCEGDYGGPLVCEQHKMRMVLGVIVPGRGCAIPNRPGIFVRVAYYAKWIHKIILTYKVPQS
Turning to B1, the “IC50, inhibition of growth/survival of U-87 MG cells” value was under 100 nM.
The same measure, in the same setting: under B2 stands under 100 nM; under B3, under 100 nM; under B4, under 100 nM.
On the same count and under the same terms, in the case of B5 it was under 100 nM; in that of B6, under 100 nM; in that of B7, under 100 nM.

Another experiment concerns the target T1, human hepatocyte growth factor (HGF). Nature of the experiment: BIAcore 3000, kinetic method: antibody captured on immobilized Protein G, human HGF (0-100 nM) injected. From the text:
The running buffer for those analyses was PBS with 0.005% P20 surfactant (BIAcore, Inc. Piscataway, N.J.). Recombinant Protein G (Pierce, Rockford, Ill.) was immobilized to a research grade CM5 sensor chip (Biacore, Inc. Piscataway, N.J.) via primary amine groups using the Amine Coupling Kit (Biacore, Inc. Piscataway, N.J.), according to the manufacturer's instructions.
In six separate samples, about 200 resonance units (RU) of each of the six antibodies to HGF was separately attached to immobilized Protein G following the manufacturer's instructions. Samples comprising various concentrations (0-100 nM) of human HGF were injected over the bound antibody surface at a flow rate of 50 μl/min for 3 minutes. Antibody binding kinetic parameters including kₐ (association rate constant), kd (dissociation rate constant), and KD (dissociation equilibrium constant) were determined using the BIA evaluation 3.1 computer program (BIAcore, Inc. Piscataway, N.J.). Lower dissociation equilibrium constants indicate greater affinity of the antibody for HGF.
In the case of B1, the Kd is about 0.47 nM, the koff came out at 3e-05 s⁻¹ and the kon is 65000 M⁻¹ s⁻¹.
Take B4: the Kd is about 0.79 nM, the koff was found to be 4.8e-05 s⁻¹ and the kon amounted to 62000 M⁻¹ s⁻¹.
Taken in the same sequence, the figures for B6 were about 0.78 nM, 2.8e-05 s⁻¹ and 36000 M⁻¹ s⁻¹.

The target of the next experiment is T2, mouse HGF (mouse, UniProt Q08048 33-728).
T2 construct: also called recombinant mouse HGF; mHGF
T2 sequence (Q08048 33-728 limits assumed): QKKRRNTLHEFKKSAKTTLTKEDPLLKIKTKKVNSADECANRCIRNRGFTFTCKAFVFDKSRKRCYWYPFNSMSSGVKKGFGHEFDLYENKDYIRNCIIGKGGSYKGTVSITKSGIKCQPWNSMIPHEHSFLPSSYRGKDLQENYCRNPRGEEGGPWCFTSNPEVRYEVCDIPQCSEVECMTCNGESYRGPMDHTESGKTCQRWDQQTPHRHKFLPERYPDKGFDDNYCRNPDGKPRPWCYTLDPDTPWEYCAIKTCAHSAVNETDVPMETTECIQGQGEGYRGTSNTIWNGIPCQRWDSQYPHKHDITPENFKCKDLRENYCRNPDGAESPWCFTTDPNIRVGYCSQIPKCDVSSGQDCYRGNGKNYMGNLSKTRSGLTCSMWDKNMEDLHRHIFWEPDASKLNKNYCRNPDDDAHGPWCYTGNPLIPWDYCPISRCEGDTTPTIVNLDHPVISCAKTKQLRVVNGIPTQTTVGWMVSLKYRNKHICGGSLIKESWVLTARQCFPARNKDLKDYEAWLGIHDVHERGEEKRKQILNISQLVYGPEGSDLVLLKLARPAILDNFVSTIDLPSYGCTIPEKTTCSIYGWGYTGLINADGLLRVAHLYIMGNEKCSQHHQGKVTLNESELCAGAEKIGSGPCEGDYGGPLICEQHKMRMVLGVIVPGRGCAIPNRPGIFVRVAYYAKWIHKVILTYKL
Nature of the experiment: Western blot, non-reducing and reducing SDS-PAGE. The method, then: Human HGF and mouse HGF were run on separate lanes of SDS PAGE gels. Human HGF and mouse HGF were each separately run at 100 ng/lane and at 10 ng/lane. Some gels were run under non-reducing conditions and other separate gels were run under reducing conditions using beta-mercaptoethanol. The human HGF and mouse HGF in the SDS PAGE gels were transferred to nitrocellulose membranes. Those membranes were separately incubated with one of the ten antibodies to HGF described in Example 6. Each of the ten antibodies to HGF was separately incubated with nitrocellulose membranes from gels containing human HGF and mouse HGF under reducing and with nitrocellulose membranes from gels containing human HGF and mouse HGF under non-reducing conditions. The membranes were then incubated with a goat anti-human IgG antibody linked to HRP (Pierce, Rockford, Ill., Cat. #31412). Signal from that goat anti-human IgG antibody linked to HRP was detected by […] (ECL™; Amersham Pharmacia Biotech, Piscataway, N.J., Cat. # RPN₂₁₀₆) following the manufacturer's instructions.
In the case of B2, the binding result was “no binding (tested: 100 ng and 10 ng per lane)”.
With B3, the binding result was “no binding (tested: 100 ng and 10 ng per lane)”.
Turning to B4, the binding result was “no binding (tested: 100 ng and 10 ng per lane)”.
On the same count and under the same terms, in the case of B5 it was “no binding (tested: 100 ng and 10 ng per lane)”; in that of B6, “no binding (tested: 100 ng and 10 ng per lane)”.
On the same count and under the same terms, in the case of B7 it was “no binding (tested: 100 ng and 10 ng per lane)”.

A further experiment addresses T1, human hepatocyte growth factor (HGF). Nature of the experiment: neutralization ELISA (left table): inhibition of the binding of soluble Met (2 nM) to plate-coated HGF, detected with biotinylated anti-cMetR antibody and Eu-streptavidin; column head 'IC50 IP (nM)'. As for the experimental part:
(§1) A neutralization ELISA assay was developed to assess whether the antibodies discussed in Example 6 could interrupt Met-HGF binding. Delphia 96-well plates (Cat#: AAAND-0001, Wallac Inc., Gaithersburg, Md.) were coated with HGF by adding 100 μl of HGF at 6.25 μg/ml per well. The plates were incubated at 37° C. for 1 hour or at 4° C. overnight. The plates were then blocked with 5% BSA (Cat#50-61-00, KPL, Gaithersburg, Md.) in PBS containing 0.1% Tween 20 for 1 hour at room temperature with shaking.
(§2) Test samples were prepared by separately mixing soluble Met (2 nM, 0.256 μg/ml) with different concentrations of a particular antibody to HGF being tested. The concentrations tested were: 667 nM, 223 nM, 74.1 nM, 24.7 nM, 8.2 nM, 2.7 nM, 0.91 nM, 0.30 nM, 0.10 nM, and 0.034 nM. A volume of 100 μl of a test sample was added to each well of the plates. The plates were then incubated at 4° C. overnight and then washed 4 times with PBS containing 0.1% Tween 20. Next, 100 μl per well of Biotinylated anti-cMetR antibody (Cat#: BAF358, R&D Systems Inc., Minneapolis, Minn.) at 2 μg/ml, was added. […] The plates were then incubated for 2 hours with shaking, and were washed 4 times with PBS containing 0.1% Tween 20. Eu-streptavidin (1:1000 dilution in Assay buffer) (Cat#1244-360, Wallac Inc., Gaithersburg, Md.) was added and the plates were shaken at room temperature for 1 hour. The plates were then washed 4 times with PBS containing 0.1% Tween 20. Next, 100 μl of enhancement buffer (Wallac Inc., Cat#: 1244-105, Gaithersburg, Md.) was added. After at least for 5 minutes, the plates were read using Europium method on Victor 2 (1420 Multilabel Counter, Wallac Inc., Gaithersburg, Md.).
(§3) Percent inhibition of Met binding to HGF (i.e. neutralization) was calculated and IC₅₀ values were determined using the 4 parameter fit equation Excelfit, Version 2.0.6, (Microsoft Inc, Seattle, Wash.). In the presence of the antibodies to HGF discussed in Examples 6, Met binding to HGF was neutralized.
As for B1, the IC50 was found to be 0.9 nM.
On to B4, for which the IC50 is 3.2 nM.
The same measure, in the same setting: under B5 stands 2.6 nM; under B6, 1 nM.
Turning to B7, the IC50 came to 1 nM.

For another experiment the target is unchanged. Nature of the experiment: BIAcore 3000, equilibrium/solution method: antibody (0.01-50 nM) incubated with human HGF (0.05 nM and 1 nM), free HGF measured on a chip carrying the same antibody. The method, then:
That method was performed with a BIAcore®3000 (Biacore, Inc., Piscataway, N.J.) using PBS with 0.005% P20 surfactant (BIAcore, Inc. Piscataway, N.J.) as running buffer. The four antibodies to HGF were separately immobilized to research grade CM5 sensor chips (Biacore, Inc. Piscataway, N.J.) via primary amine groups using an Amine Coupling Kit (Biacore, Inc. Piscataway, N.J.) following the manufacturer's instructions.
In separate assays, each of the four antibodies to HGF, over a range of concentrations (from 0.01 nM to 50 nM) was separately incubated with each of two different concentrations (0.05 nM and 1 nM) of human HGF in PBS with 0.005% P-20 and 0.1 mg/mL BSA at room temperature for at least six hours. Each of those samples was then injected over a surface of a CM5 sensor chip onto which the same antibody to HGF had been immobilized. The binding signal obtained was proportional to the free HGF in solution. The dissociation equilibrium constant (KD) was obtained from nonlinear regression analysis of the competition curves using a dual-curve one-site homogeneous binding model (KinExA software, Sapidyne Instruments Inc., Boise Id.).
For B4, binding was characterised by a dissociation constant (Kd) of 0.034 nM.

For the next experiment the target is unchanged. Nature of the experiment: neutralization ELISA (right table): inhibition of the binding of soluble Met (2 nM) to plate-coated HGF, detected with biotinylated anti-cMetR antibody and Eu-streptavidin; column head 'IC50 IP (nM)'. The method, then: as §1, §2, §3
For the molecule B1, the IC50 was found to be 0.37 nM.
On the same count and under the same terms, under B2 stands 2.59 nM; under B4, 1.93 nM; under B5, 9.36 nM.
As to B6, the IC50 came to 0.72 nM.

In another experiment the target is T2, mouse HGF. Nature of the experiment: FACS bead assay: antibody incubated with the avidin fusion of mouse HGF, captured on biotin-coated beads; FITC anti-avidin (x) against PE goat anti-human F(ab')2 (y). As for the experimental part:
After incubation, the fusion proteins in each sample were separately captured using biotin-coated beads (Spherotech Inc., Libertyville, Ill., Cat # TP-60-5). The resulting bead-protein complexes were labeled by adding FITC labeled anti-avidin antibody (Vector Lab, Burlingame, Calif., Cat. # SP-2040). The presence of antibodies to HGF was determined by adding phycoerythrin (PE) labeled goat anti-human F(ab′)2 antibody (Southern Biotech Associates, Inc, Birmingham, Ala., Cat #2043-09).
Those samples were then subjected to Fluorescence Activated Cell Sorter (FACS) analysis. Bead complexes labeled by FITC (which indicated the presence of avidin) and/or PE (which indicated the presence of antibody to HGF) were detected on a Becton Dickinson Bioscience FACScan (BD, Franklin Lakes, N.J.).
For the molecule B1, the binding result is recorded as “no binding”.
